Source: patent US20250179155A1 (VANDERBILT UNIVERSITY, published 2025)

B1: B2F11 (VHH)
VHH: QVQLQESGGGLVQAGGSLTLSCTASGFTFSNYVMSWYRQAPGKEREWVASVSESGQSRTYADSVKGRFTISRDNTNFSVYLQMNNLNSEDTAVYYCNTGSRTYGARYWGQGTQVTVSS
B2: A1F4 (VHH)
VHH: QVQLQESGGGLVQAGGSLRLSCTASGRTFTTYNWAWFCQAPGKEREFVAAITGLTRHTYYADSVKGRFTISRDNAKNTVYLQMNSLKPEDTAVYFCAVSSGGDLNERVNYEYWGQGTQVTVSS
B3: A2G6 (VHH)
VHH: QVQLQESGGGLVQAGGSLRLSCAASGRTFSRIAMGWFRQVPGKEREFVAGISGNGGTFYTDSVKGRFTISRDNTKNTVYLQMNSLRPEDTAVYYCAADPNYRATYFPYGMDYYGRGTQVTVSS
B4: A1A6 (VHH)
VHH: QVQLQESGGGSVQAGGSLRLSCAASGFIDDDYAIGWFRQAPGKEREGISCISSSNGKIHYADSVKGRFTISEDIAKKTVYLQMNFLKPEDTAVYYCAAETRGWSYCSGYGWSRYKYWGQGTQVTVSS
notes: also called Nb A1A6; A1A6-Avi
B5: A1C3 (VHH)
VHH: QVQLQESGGGLVQPGGSLRLSCAASGRIFSIKSMGWYRQAPGKQRELVADITSGGSTNYADSVKGRFTISRDSAWNTVYLQMNSLKPEDTAVYYCRRVVVTPYPDEYEYDYWGQGTQVTVSS
notes: also called Nb A1C3
B6: B1A11 (VHH)
VHH: QVQLQESGGGVVQPGGSLRLTCTSSRSINIYVAMGWYRQAPGKQRERVATAHKDGGTRYSDSVKGRFTISRDDDKNTVYLQMNNLEPGDTAVYYCNAFGSSAWGQGTQVTVSS

Assays:
[1] = molecular target: full-length TcdB (TcdB1-2366), VPI10463 (Clostridioides difficile strain VPI10463, UniProt P18177 1-2366); experiment: cell-based or functional assay
[2] = molecular target: T1, TcdB-CROPs (TcdB1827-2366) (Clostridioides difficile strain VPI10463, UniProt P18177 1827-2366); experiment: ELISA on isolated toxin domains (domain specificity)
T1 construct: range 1827-2366; also called TcdB CROPS domain; TcdBX-Y

TcdA-GTD (TcdA1-542) = molecular target: T2, TcdA-GTD (TcdA1-542) (Clostridioides difficile strain VPI10463, UniProt P16154 1-542); experiment: ELISA-like screen of clone lysates on isolated domains
T2 construct: range 1-542; also called TcdA glucosyltransferase domain

[3] = molecular target: T3, full-length TcdA (TcdA1-2710) (Clostridioides difficile strain VPI10463, UniProt P16154 1-2710); experiment: cell-based or functional assay
[4] = molecular target: T3, full-length TcdA (TcdA1-2710); experiment: sandwich ELISA, capture A2B10, biotinylated detection A1A6
TcdA1-1809 = molecular target: T4, TcdA1-1809 (Clostridioides difficile strain VPI10463, UniProt P16154 1-1809); experiment: ELISA on isolated toxin domains (domain specificity)
T4 construct: range 1-1809

TcdA1-1832 = molecular target: T5, TcdA1-1832 (Clostridioides difficile strain VPI10463, UniProt P16154 1-1832); experiment: negative stain EM with single particle averaging
T5 construct: range 1-1832; also called TcdA1-1832 (no CROPs domain)

[5] = molecular target: T3, full-length TcdA (TcdA1-2710); experiment: sandwich ELISA on filtered culture supernatant (VPI10463), FIG. 3J

T3 sequence (P16154 whole entry): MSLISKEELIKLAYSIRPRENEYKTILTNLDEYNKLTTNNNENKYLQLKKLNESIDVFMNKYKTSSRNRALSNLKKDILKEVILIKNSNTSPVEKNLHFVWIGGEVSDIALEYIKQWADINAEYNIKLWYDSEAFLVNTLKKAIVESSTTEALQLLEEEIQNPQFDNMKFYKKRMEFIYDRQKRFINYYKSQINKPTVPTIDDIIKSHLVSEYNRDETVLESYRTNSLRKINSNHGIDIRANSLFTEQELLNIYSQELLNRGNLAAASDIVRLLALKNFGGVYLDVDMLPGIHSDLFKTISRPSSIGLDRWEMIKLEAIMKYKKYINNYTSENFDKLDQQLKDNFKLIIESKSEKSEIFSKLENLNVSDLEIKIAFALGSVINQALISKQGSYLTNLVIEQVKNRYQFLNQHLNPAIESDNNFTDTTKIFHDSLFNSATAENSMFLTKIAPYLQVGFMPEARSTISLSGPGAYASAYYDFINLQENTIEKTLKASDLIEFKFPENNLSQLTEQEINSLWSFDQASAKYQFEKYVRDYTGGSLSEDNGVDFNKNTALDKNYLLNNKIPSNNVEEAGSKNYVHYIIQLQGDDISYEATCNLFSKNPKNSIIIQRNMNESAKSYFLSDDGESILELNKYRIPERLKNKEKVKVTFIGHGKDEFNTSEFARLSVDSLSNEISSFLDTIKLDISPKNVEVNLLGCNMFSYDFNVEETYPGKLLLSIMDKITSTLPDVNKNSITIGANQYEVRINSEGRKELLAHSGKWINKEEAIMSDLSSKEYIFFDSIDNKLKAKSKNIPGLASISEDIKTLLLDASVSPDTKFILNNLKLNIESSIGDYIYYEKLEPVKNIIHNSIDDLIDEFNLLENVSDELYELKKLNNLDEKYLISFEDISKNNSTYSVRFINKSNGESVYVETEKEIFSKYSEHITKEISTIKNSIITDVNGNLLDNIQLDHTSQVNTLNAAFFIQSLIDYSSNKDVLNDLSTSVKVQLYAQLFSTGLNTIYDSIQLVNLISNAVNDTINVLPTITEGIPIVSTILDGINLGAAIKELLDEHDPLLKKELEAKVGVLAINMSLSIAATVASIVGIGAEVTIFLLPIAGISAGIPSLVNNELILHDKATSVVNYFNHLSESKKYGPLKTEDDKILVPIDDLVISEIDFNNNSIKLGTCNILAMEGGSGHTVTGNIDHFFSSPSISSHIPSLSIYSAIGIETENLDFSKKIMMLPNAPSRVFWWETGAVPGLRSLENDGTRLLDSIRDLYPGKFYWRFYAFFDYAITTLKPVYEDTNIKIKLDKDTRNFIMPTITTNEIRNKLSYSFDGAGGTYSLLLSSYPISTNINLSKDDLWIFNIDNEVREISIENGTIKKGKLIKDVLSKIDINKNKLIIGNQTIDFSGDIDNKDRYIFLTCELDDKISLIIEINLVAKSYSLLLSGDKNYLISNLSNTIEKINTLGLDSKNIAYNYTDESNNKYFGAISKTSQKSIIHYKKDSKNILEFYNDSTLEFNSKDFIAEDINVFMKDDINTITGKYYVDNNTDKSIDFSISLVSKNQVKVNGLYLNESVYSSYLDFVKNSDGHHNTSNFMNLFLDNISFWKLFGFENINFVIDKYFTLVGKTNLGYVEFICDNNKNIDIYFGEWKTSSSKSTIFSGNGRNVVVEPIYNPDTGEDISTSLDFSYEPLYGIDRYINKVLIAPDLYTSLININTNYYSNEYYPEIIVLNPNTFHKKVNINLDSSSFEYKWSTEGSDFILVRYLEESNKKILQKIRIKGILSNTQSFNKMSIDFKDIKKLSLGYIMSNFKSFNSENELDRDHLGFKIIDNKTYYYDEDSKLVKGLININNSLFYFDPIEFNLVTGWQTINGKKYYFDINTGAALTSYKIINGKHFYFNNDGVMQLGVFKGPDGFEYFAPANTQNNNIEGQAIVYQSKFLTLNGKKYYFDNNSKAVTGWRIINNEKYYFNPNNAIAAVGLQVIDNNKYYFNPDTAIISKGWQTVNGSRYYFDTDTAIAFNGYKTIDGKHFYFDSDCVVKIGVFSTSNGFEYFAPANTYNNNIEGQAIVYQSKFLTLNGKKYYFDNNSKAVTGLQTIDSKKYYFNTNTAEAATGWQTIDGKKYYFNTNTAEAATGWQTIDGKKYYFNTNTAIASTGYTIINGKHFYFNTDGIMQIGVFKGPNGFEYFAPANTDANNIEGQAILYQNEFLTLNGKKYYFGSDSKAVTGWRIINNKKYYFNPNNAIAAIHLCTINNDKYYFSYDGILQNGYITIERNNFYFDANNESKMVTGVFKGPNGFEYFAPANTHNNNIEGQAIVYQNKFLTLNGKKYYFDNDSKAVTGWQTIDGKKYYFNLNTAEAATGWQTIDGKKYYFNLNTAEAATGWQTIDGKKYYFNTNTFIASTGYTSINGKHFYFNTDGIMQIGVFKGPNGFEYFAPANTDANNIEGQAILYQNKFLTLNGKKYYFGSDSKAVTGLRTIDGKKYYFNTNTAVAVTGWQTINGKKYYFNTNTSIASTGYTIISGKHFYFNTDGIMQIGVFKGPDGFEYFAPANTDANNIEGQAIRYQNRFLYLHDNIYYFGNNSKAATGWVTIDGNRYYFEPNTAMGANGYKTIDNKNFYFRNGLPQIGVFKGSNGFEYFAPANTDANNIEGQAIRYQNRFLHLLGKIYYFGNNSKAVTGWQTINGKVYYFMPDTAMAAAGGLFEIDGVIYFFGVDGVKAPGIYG
T2 sequence (P16154 1-542 limits assumed): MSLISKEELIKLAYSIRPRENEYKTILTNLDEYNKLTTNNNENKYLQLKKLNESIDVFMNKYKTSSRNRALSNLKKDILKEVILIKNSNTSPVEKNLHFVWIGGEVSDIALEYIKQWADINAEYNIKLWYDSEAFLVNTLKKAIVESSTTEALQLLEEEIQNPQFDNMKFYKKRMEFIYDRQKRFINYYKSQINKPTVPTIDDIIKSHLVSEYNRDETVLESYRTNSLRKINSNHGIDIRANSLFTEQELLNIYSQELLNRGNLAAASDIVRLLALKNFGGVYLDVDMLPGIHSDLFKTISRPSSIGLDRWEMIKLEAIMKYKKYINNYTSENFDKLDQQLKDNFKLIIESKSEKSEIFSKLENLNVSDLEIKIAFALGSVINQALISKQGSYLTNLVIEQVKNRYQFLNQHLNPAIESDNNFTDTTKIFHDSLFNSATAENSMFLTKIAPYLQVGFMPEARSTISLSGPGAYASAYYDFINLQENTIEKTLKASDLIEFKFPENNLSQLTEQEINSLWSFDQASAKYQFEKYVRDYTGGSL
T1 sequence (P18177 1827-2366 limits assumed): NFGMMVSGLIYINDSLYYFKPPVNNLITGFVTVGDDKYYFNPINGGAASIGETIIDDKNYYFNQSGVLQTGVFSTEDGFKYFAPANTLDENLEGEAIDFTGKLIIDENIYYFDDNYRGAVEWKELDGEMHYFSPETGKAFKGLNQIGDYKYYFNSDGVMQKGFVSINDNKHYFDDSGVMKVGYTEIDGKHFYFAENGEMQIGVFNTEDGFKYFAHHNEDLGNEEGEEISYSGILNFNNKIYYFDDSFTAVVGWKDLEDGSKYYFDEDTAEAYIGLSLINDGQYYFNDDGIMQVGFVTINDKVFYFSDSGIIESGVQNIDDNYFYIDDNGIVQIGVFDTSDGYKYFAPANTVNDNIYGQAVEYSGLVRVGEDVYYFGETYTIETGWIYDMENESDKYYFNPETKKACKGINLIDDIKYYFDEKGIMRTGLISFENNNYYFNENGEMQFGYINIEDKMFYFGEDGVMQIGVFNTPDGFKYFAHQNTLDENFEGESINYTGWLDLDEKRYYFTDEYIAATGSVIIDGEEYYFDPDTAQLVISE

Binder	EC50 (nM), TcdB neutralization, Vero cells [1] [nM]	binding result [2]	binding result (TcdA-GTD (TcdA1-542))	other results
B1	15.6	binds	–	–
B2	–	–	no binding	EC50, TcdA neutralization, T84 cells [3]: > 10000 nM
B3	–	–	no binding	EC50 (nM), TcdA neutralization, T84 cells [3]: 9.2 nM; EC50 (nM), TcdA neutralization, Vero cells [3]: < 1 nM
B4	–	–	–	binding result [4]: binds
B5	–	–	no binding	binding result (TcdA1-1809): binds; binding result (TcdA1-1832): binds; binding result [5]: binds
B6	38.4	binds	–	–
